Measurements from the supplement of paper PMC10567573.

B1: FAM46C (parent)
chain: VRSRLEEAGIKVHDVRLNGSAAGH

Variants of: B1
Assay: protein stability index of a GFP-peptide fusion (GPS, HEK-293T) (PSI 1-6); higher = more stable
Settings: c terminus: a fixed tail appended
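Note: lentivirally expressed fusions sorted by FACS into six bins by GFP to DsRed ratio, PSI derived from sequencing read proportions per bin multiplied by bin number.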

Variant | protein stability index
VRSRLEEAGIIVHDVRLNGSAAGH | 1.63
VRSRLEEAGIHVHDVRLNGSAAGH | 1.99
VRSRLEEAGIGVHDVRLNGSAAGH | 3.13
VRSRLEEAGITVHDVRLNGSAAGH | 4.08
VRSRLEEAGIQVHDVRLNGSAAGH | 2.74
VRSRLEEAGIMVHDVRLNGSAAGH | 2.01
VRSRLEEAGIAVHDVRLNGSAAGH | 3.94
VRSRLEEAGISVHDVRLNGSAAGH | 3.76
VRSRLEEAGIWVHDVRLNGSAAGH | 2.69
VRSRLEEAGICVHDVRLNGSAAGH | 2.73
VRSRLEEAGIEVHDVRLNGSAAGH | 2.89
VRSRLEEAGIVVHDVRLNGSAAGH | 2.36
VRSRLEEAGINVHDVRLNGSAAGH | 3.82
VRSRLEEAGILVHDVRLNGSAAGH | 3.83
VRSRLEEAGIFVHDVRLNGSAAGH | 1.51
VRSRLEEAGIKVHDPRLNGSAAGH | 3.65
VRSRLEEAGIKVHDSRLNGSAAGH | 3.35
VRSRLEEAGIKVHDMRLNGSAAGH | 3.41
VRSRLEEAGIKVHDKRLNGSAAGH | 3.44
VRSRLEEAGIKVHDFRLNGSAAGH | 3.57
VRSRLEEAGIKVHDERLNGSAAGH | 3.27
VRSRLEEAGIKVHDRRLNGSAAGH | 3.75
VRSRLEEAGIKVHDCRLNGSAAGH | 2.42
VRSRLEEAGIKVHDYRLNGSAAGH | 2.61

Variant | protein stability index
VRSRLEEAGIKVHDDRLNGSAAGH | 5.04
VRSRLEEAGIKVHDHRLNGSAAGH | 4.22
VRSRLEEAGIKVHDIRLNGSAAGH | 2.06
VRSRLEEAGIKVHDNRLNGSAAGH | 3.62
VRSRLEEAGIKVHDARLNGSAAGH | 4.24
VRSRLEEAGIKVHDLRLNGSAAGH | 2.76
VRSRLEEAVIKVHDVRLNGSAAGH | 2.88
VRSRLEEAHIKVHDVRLNGSAAGH | 4.57
VRSRLEEAWIKVHDVRLNGSAAGH | 2.81
VRSRLEEAYIKVHDVRLNGSAAGH | 2.51
VRSRLEEANIKVHDVRLNGSAAGH | 3.91
VRSRLEEAQIKVHDVRLNGSAAGH | 3.88
VRSRLEEADIKVHDVRLNGSAAGH | 3.89
VRSRLEEAAIKVHDVRLNGSAAGH | 2.76
VRSRLEEATIKVHDVRLNGSAAGH | 2.97
VRSRLEEAMIKVHDVRLNGSAAGH | 3.15
VRSRLEEALIKVHDVRLNGSAAGH | 2.26
VRSRLEEAKIKVHDVRLNGSAAGH | 2.75
VRSRLEEAIIKVHDVRLNGSAAGH | 1.44
VRSRLEEARIKVHDVRLNGSAAGH | 3.88
VRSRLEEASIKVHDVRLNGSAAGH | 3.9
VRSRLEEAPIKVHDVRLNGSAAGH | 3.67
VRSRLEEACIKVHDVRLNGSAAGH | 3.03
VRSRLEEAGSKVHDVRLNGSAAGH | 3.9

Variant | protein stability index
VRSRLEEAGYKVHDVRLNGSAAGH | 1.75
VRSRLEEAGFKVHDVRLNGSAAGH | 2.12
VRSRLEEAGRKVHDVRLNGSAAGH | 3.41
VRSRLEEAGAKVHDVRLNGSAAGH | 3.63
VRSRLEEAGTKVHDVRLNGSAAGH | 3.78
VRSRLEEAGMKVHDVRLNGSAAGH | 3.78
VRSRLEEAGVKVHDVRLNGSAAGH | 4.24
VRSRLEEAGCKVHDVRLNGSAAGH | 2.89
VRSRLEEAGGKVHDVRLNGSAAGH | 4.5
VRSRLEEAGPKVHDVRLNGSAAGH | 4.56
VRSRLEHAGIKVHDVRLNGSAAGH | 2.37
VRSRLEWAGIKVHDVRLNGSAAGH | 1.99
VRSRLERAGIKVHDVRLNGSAAGH | 3.32
VRSRLEKAGIKVHDVRLNGSAAGH | 2.45
VRSRLECAGIKVHDVRLNGSAAGH | 1.47
VRSRLETAGIKVHDVRLNGSAAGH | 2.51
VRSRLEFAGIKVHDVRLNGSAAGH | 2.49
VRSRLEGAGIKVHDVRLNGSAAGH | 3.06
VRSRLEYAGIKVHDVRLNGSAAGH | 2.8
VRSRLEIAGIKVHDVRLNGSAAGH | 2.48
VRSRLESAGIKVHDVRLNGSAAGH | 2.5
VRSRLEPAGIKVHDVRLNGSAAGH | 3.78
VRSRLEEAGIKVHDVYLNGSAAGH | 2.64
VRSRLEEAGIKVHDVFLNGSAAGH | 2.25

Variant | protein stability index
VRSRLEEAGIKVHDVELNGSAAGH | 4.63
VRSRLEEAGIKVHDVHLNGSAAGH | 2.54
VRSRLEEAGIKVHDVVLNGSAAGH | 2.63
VRSRLEEAGIKVHDVQLNGSAAGH | 2.68
VRSRLEEAGIKVHDVKLNGSAAGH | 2.49
VRSRLEEAGIKVHDVWLNGSAAGH | 1.66
VRSRLEEAGIKVHDVDLNGSAAGH | 4.37
VRSRLEEAGIKVHDVSLNGSAAGH | 2.68
VRSRLEEAGIKTHDVRLNGSAAGH | 2.29
VRSRLEEAGIKNHDVRLNGSAAGH | 4.04
VRSRLEEAGIKYHDVRLNGSAAGH | 3.33
VRSRLEEAGIKQHDVRLNGSAAGH | 4.06
VRSRLEEAGIKRHDVRLNGSAAGH | 4.44
VRSRLEEAGIKLHDVRLNGSAAGH | 2.56
VRSRLEEAGIKPHDVRLNGSAAGH | 4.06
VRSRLEEAGIKWHDVRLNGSAAGH | 2.77
VRSRLEEAGIKSHDVRLNGSAAGH | 3.93
VRSRLEEAGIKEHDVRLNGSAAGH | 4.73
VRSRLEEAGIKFHDVRLNGSAAGH | 3.04
VRSRLEEAGIKMHDVRLNGSAAGH | 3.25
VRSRLEEAGIKHHDVRLNGSAAGH | 3.6
VRSRLEEAGIKKHDVRLNGSAAGH | 4.25
